Each block holds one binder with its values, some of them ahead of it.
Target: PRAME-004 peptide presented by HLA-A*02 on target cells (peptide-loaded T2 cells); PRAME-004-presenting tumor … (human)
Experiment: cell-based or functional assay

- EC50 of IFNγ release, T2 cells loaded with PRAME-004 from 10 µM to 10 pM (FIG. 13): 1.83 nM
B1: TCR R17P1D7 (TCR, V domains shown)
V domain 1: QTVTQSQPEMSVQEAETVTLSCTYDTSESDYYLFWYKQPPSRQMILVIRQEAYKQQNATENRFSVNFQKAAKSFSLKISDSQLGDAAMYFCAYRWAQGGSEKLVFGKGTKLTVNP
V domain 2: DIYQTPRYLVIGTGKKITLECSQTMGHDKMYWYQQDPGMELHLIHYSYGVNSTEKGDLSSESTVSRIRTEHFPLTLESARPSHTSQYLCATELWSSGGTGELFFGEGSRLTVLE

- EC50 of IFNγ release, T2 cells loaded with PRAME-004 from 10 µM to 10 pM (FIG. 12): ~1 µM
B2: TCR R16P1E8 (TCR, V domains shown)
V domain 1: QKEVEQDPGPLSVPEGAIVSLNCTYSNSAFQYFMWYRQYSRKGPELLMYTYSSGNKEDGRFTAQVDKSSKYISLFIRDSQPSDSATYLCAMSEAAGNKLTFGGGTRVLVKP
V domain 2: EAGVAQSPRYKIIEKRQSVAFWCNPISGHATLYWYQQILGQGPKLLIQFQNNGVVDDSQLPKDRFSAERLKGVDSTLKIQPAKLEDSAVYLCASSYTNQGEAFFGQGTRLTVVE
